# Measured values reported in paper doi:10.1101/2024.02.15.580443.
# Where two headings read alike, the source gives them in different places.
# Assays:
# [1] = target: ComM from Legionella pneumophila (C-terminal His6-tag) (Legionella pneumophila Paris) (UniProt Q5ZXZ0); assay: cryo-EM structure
# [2] = target: ComM from Legionella pneumophila (C-terminal His6-tag) (Legionella pneumophila Paris) (UniProt Q5ZXZ0); assay: cryo-EM structure; remark: listed apart in the source
# [3] = target: RadA R301A mutant from Streptococcus pneumoniae (for biochemical assays) (Streptococcus pneumoniae (R800 derivative strain)) (UniProt Q8DRP0)
# [4] = target: RadA from Streptococcus pneumoniae (strep-tagged, for cryoEM) (Streptococcus pneumoniae) (UniProt Q8DRP0); assay: cryo-EM structure
substance,measurement,setting,value
ComM from Legionella pneumophila (C-terminal His6-tag) (from UniProt Q5ZXZ0 1-503) (enzyme),stoichiometry N,[1],12
same,stoichiometry N,[2],6
RadA R301A mutant from Streptococcus pneumoniae (for biochemical assays) (from UniProt Q8DRP0 2-419) (enzyme),stoichiometry N,[3],6
"RadA from Streptococcus pneumoniae (strep-tagged, for cryoEM) (from UniProt Q8DRP0 1-420) (enzyme)",stoichiometry N,[4],6
